The source of these data is patent publication KR20220160483A (dated 2022).

Where a chain is given by its changes, count along the chain named.

Usually Kd stands for the concentration at which binding is half-saturated. The low end stands for a tighter complex, the high end for a looser complex. Broadly, the koff is a measure of how fast the partners let go of each other. As usually defined, the kon is a measure of how fast the partners come together. Low values mean slow association, high ones fast association. One may read the EC50 as the midpoint of the concentration-response curve.

The target of experiment [1] is T1, 재조합 마우스 ASM(acid sphingomyelinase) 단백질 (mouse, UniProt Q04519 45-626, limits assumed).
T1 construct: Recombinant protein; also called 마우스 ASM 단백질; recombinant mouse ASM protein
T1 sequence: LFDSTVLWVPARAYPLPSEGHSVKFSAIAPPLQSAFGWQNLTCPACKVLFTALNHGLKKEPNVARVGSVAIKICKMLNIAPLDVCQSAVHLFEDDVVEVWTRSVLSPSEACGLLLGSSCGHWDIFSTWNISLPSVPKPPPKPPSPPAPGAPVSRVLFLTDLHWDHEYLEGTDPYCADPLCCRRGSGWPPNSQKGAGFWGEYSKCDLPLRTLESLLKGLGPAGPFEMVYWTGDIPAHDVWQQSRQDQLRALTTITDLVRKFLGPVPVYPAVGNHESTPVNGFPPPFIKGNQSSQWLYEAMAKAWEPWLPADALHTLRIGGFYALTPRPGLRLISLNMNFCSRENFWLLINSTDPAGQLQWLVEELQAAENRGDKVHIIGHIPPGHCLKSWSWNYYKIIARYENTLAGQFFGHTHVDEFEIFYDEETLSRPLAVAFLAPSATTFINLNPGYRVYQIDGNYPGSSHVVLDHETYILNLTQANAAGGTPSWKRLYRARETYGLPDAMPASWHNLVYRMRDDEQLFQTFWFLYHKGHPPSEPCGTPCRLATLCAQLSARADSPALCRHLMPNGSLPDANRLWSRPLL
Kind of experiment: BLI (Octet QK384), mouse ASM amine-coupled on AR2G sensor, antibody 0.4, 2, 10 nM; poor fit (RMax 0.0185, Full R2 0.5527), text does not count it as binding. For orientation: Biolayer interferometry detects binding as a change in optical thickness at a sensor tip.

Experiment [2] addresses T2, 재조합 인간 ASM(acid sphingomyelinase) 단백질 (human, UniProt P17405 62-630, limits assumed).
T2 construct: Recombinant protein, bought (R&D systems in the ELISA); also called 인간 ASM 단백질; recombinant human ASM protein
T2 sequence: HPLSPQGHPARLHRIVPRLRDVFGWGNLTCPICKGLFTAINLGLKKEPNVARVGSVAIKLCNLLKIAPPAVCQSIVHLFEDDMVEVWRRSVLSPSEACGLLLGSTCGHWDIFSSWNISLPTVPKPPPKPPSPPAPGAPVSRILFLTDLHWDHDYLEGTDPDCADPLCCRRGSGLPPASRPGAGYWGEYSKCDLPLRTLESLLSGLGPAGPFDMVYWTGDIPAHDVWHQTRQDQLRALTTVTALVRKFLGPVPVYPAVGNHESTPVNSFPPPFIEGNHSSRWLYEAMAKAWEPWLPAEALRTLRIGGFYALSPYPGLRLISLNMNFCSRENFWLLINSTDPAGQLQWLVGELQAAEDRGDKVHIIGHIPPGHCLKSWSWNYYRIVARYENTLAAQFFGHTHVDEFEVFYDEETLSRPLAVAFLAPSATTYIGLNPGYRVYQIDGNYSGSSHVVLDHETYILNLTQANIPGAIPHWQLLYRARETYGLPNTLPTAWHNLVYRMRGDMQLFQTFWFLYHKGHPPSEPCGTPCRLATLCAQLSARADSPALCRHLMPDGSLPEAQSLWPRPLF
Kind of experiment: BLI (Octet QK384), human ASM amine-coupled on AR2G sensor, antibody 0.4, 2, 10 nM.

For experiment [3], the target named is T2, 재조합 인간 ASM(acid sphingomyelinase) 단백질. Nature of the experiment: ELISA, recombinant human ASM coated at 1 ㎍/㎖, anti-mouse IgG-HRP. For orientation: ELISA stands for enzyme-linked immunosorbent assay.
The target in experiment [4] is T1, 재조합 마우스 ASM(acid sphingomyelinase) 단백질. Nature of the experiment: BLI (Octet QK384), mouse ASM amine-coupled on AR2G sensor, antibody 0.4, 2, 10 nM.
Experiment [5] shares this target. Kind of experiment: BLI (Octet QK384), mouse ASM amine-coupled on AR2G sensor, antibody 0.4, 2, 10 nM; no signal (RMax 0, Full R2 0), text does not count it as binding.

B1: #9101 항체 (antibody, mouse IgG1, V domains shown)
VH: EVQLLESGGGLVQPGGSLRLSCAASGFTFSNYAMSWVRQAPGKGLEWVSGIYPNGGNKYYADSVKGRFTISRDNSKNTLYLQMNSLRAEDTAVYYCAKNAYRFDYWGQGTLVTVSS
VL: QSVLTQPPSASGTPGQRVTISCSGSSSNIGNNYVSWYQQLPGTAPKLLIYADSKRPSGVPDRFSGSKSGTSASLAIGGLRSEDEADYYCGSWDYSLNAYVFGGGTKLTVLG
For B1, in experiment [1], binding was put at a Kd of 0.0425 nM, the koff was found to be 0.000159 s⁻¹ and the kon is 3.76e+06 M⁻¹ s⁻¹. In addition, in experiment [2], the Kd was 1.16 nM, the koff came to 0.000728 s⁻¹ and the kon came to 626000 M⁻¹ s⁻¹. Further, the EC50 in experiment [3] was found to be 0.0815 nM.

B2: #9108 항체 (antibody, mouse IgG1, V domains shown)
VH: EVQLLESGGGLVQPGGSLRLSCAASGFTFSNYAMSWVRQAPGKGLEWVSAIYPGGGSIYYADSVKGRFTISRDNSKNTLYLQMNSLRAEDTAVYYCARDVLGLTPKPFDYWGQGTLVTVSS
VL: B1 VL with I20L, S23T, N31S, Y33T, S35Y, D52N, K54Q, G77S, N97S, A98G
In experiment [4], B2 returned a Kd of 3.39 nM, a koff of 0.00156 s⁻¹ and a kon of 459000 M⁻¹ s⁻¹. Further, in experiment [2], the Kd was 0.119 nM, the koff was 2.96e-05 s⁻¹ and the on-rate constant (kon) was 249000 M⁻¹ s⁻¹. Besides, the 50% effective concentration (EC50) in experiment [3] was determined as 0.327 nM.

B3: #9113 항체 (antibody, mouse IgG1, V domains shown)
VH: EVQLLESGGGLVQPGGSLRLSCAASGFTFSSYYMSWVRQAPGKGLEWVSSISPGGSSIYYADSVKGRFTISRDNSKNTLYLQMNSLRAEDTAVYYCAKGASLFDYWGQGTLVTVSS
VL: B1 VL with Y33A, A51S, S53N, G77S, S91T, Y94A
notes: also called #9113 mIgG1
In experiment [2], B3 displayed a Kd of 0.564 nM, a koff of 0.000656 s⁻¹ and a kon of 1.16e+06 M⁻¹ s⁻¹. In experiment [5], this molecule had a Kd below 0.001 nM, a koff below 1e-07 s⁻¹ and a kon of 1e+06 M⁻¹ s⁻¹.

B4: #9104 항체 (antibody, mouse IgG1, V domains shown)
VH: B1 VH with A33Y, P53Y, N54G, G55S, K58I, K98R, N99D, A100T, Y101P, R102G
VL: B1 VL with S23T, Y33A, S35N, A51Y, K54H, G77S, S91A, N97S
As for B4, in experiment [4], binding was characterised by a dissociation constant (Kd) of 0.638 nM, the koff amounted to 0.000198 s⁻¹ and the kon was 310000 M⁻¹ s⁻¹. In experiment [2], the Kd came out at 0.209 nM, the koff was 8.18e-05 s⁻¹ and the kon was determined as 392000 M⁻¹ s⁻¹. For the same molecule, the EC50 in experiment [3] worked out at 1.95 nM.

B5: #9102 항체 (antibody, mouse IgG1, V domains shown)
VH: B3 VH with S31G, S50L, G55S, S56G, G99S, A100W, S101H, L102H
VL: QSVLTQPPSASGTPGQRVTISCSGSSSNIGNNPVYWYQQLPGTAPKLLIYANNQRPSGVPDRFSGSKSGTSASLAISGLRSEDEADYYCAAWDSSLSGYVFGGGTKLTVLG
B5: in experiment [4], binding was characterised by a dissociation constant (Kd) of 0.498 nM, the koff came to 0.000243 s⁻¹ and the kon worked out at 489000 M⁻¹ s⁻¹. In experiment [2], this molecule registered a Kd of 0.252 nM, a koff of 0.000105 s⁻¹ and a kon of 416000 M⁻¹ s⁻¹. Further, in experiment [3], the EC50 is 0.0954 nM.

B6: #9123 항체 (antibody, mouse IgG1, V domains shown)
VH: EVQLLESGGGLVQPGGSLRLSCAASGFTFSDYAMSWVRQAPGKGLEWVSAISYGGGNIYYADSVKGRFTISRDNSKNTLYLQMNSLRAEDTAVYYCARVGGMCTRRQCYYDYGMDVWGQGTLVTVSS
VL: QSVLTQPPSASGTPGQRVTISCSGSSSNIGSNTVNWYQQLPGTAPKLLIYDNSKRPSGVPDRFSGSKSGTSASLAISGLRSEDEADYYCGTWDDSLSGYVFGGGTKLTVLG
notes: also called #9123 mIgG1
B6: the EC50 in experiment [3] was found to be 0.758 nM.
